{"source": "the DeepSol protein solubility set"}
{"assay": "soluble on expression in E. coli; label from the status in PepcDB or PDB records"}
{"sequence": "MKVGYLGPAATFTHLAVSSCFQNGAEHVAYRTIPECIDAAVAGEVDFAFVPLENALEGSVNLTIDYLIHEQPLPIVGEMTLPIHQHLLVHPSRENAWKELDKIYSHSHAIAQCHKFLHRHFPSVPYEYANSTGAAAKFVSDHPELNIGVIANDMAASTYELKIVKRDIQDYRDNHTRFVILSPDENISFEVNSKLSSRPKTTLMVMLPQDDQSGALHRVLSAFSWRNLNLSKIESRPTKTGLGHYFFIIDIEKAFDDVLIPGAMQELEALGCKVRLLGAYQSYQLMAGDPLEHHHHHH", "soluble on expression in E. coli": "not soluble"}
{"sequence": "MSKKFFLSLGLVALLFSNSQAIDENLIKAAQAEGRVNSLAMPDTWANWKDTWADLKNLYDIEHSDTDMSSAQEIAKFKTEKKNASGDIGDVGASFGEIAVKQGVAQPFKTSYWDQIPTWAKDKDGNWLLAYTGTIAFIVNKDVVKDIPKTWQDLLKGNYKITVGDVSVAAQAVSAVLAANYALGGDEKDLSPALAFFNTLAKQGRLVNNDVSIANLEKGEVEVGLVWDFNGLGYRDKVGKDRYEVLIPADGSVISGYTTIINKYAKHPNAAKLAREFILSDKGQINLAKGYARPIRIDHITLPDDIKAKLLPSEQYKNARAIKDQKAWEKSAKELPQLWQEKVIVDMK", "soluble on expression in E. coli": "not soluble"}
{"sequence": "MREIVWVHSQRIAPYKTLILNEFCYYPLELDPTPFNALIFTSKNAVFSLLETLKNSPKLKMLQNIPAYALSEPTAKTLQDHHFKVAFMGEKAHGKEFVQEIFPLLEKKSVLYLRAKEIVSSLDTILLEHGIDFKQAVVYENKLKHLTLSEQNALKPKEKSILIFTAISHAKAFLHYFEFLENYTAISIGNTTALYLQEQGIPSYIAKKPSLEACLELALSLRIKEC", "soluble on expression in E. coli": "not soluble"}
{"sequence": "ETQQRCVTATDYDTFVSERFGSIIQAVQTFTDSTKPGYAFIAAKPKSGLYLTTVQREDIKNYLKDYNLAPITPSIISPNYLFIKTNLKVTYALNKLQESEQWLEGQIIDKIDRYYTEDVEIFNSSFAKSKMLTYVDDADHSVIGSSATIQMVREVQNFYKTPEAGIKYNNQIKDRSMESNTFSFNSGRKVVNPDTGLEEDVLYDVRIVSTDRDSKGIGKVIIGPFASGDVTENENIQPYTGNDFNKLANSDGRDKYYVIGEINYPADVIYWNIAKINLTSEKFEVQTIELYSDPTDDVIFTRDGSLIVFENDLRPQYLTIDLEPISQLEHHHHHH", "soluble on expression in E. coli": "soluble"}
{"sequence": "MGHHHHHHSHMEMASADSDEDPRHKVGKTPHLTLPADLQTLHLNRPTLSPESKLEWNNDIPEVNHLNSEHWRKTEKWTGHEETNHLETDFSGDGMTELELGPSPRLQPIRRHPKELPQYGGPGKDIFEDQLYLPVHSDGISVHQMFTMATAEHRSNSSIAGKMLTKVEKNHEKEKSQHLEGSASSSLSSD", "soluble on expression in E. coli": "not soluble"}
{"sequence": "MAITAKNAQLYGLDLELGLETGLAADVDNDSMSGLVLVELLSPYHQLETRFKLESQTALAFQAMADSAAKDGIKLAICSAYRPFDRQLAIWNAKASGKRVVLDINEQPVDITPLSESELVDLILLWSALPGASRHHWGTDIDVFDAEKIEVKSLRLVEAEYRDGGPCAQLHQWLVANAKDFGFYFPFQRGQSAVSAEPWHISYFPVSQILLPQFEVQALTQIIAHSDMLLKDAVLARLPELVAEYVHRIAQP", "soluble on expression in E. coli": "soluble"}
{"sequence": "MAHHHHHHMLRRVVAPAPVSATAACAGQARSIYEYKFGQTPLTQPFGGTSRLPPGPSSNPAPVAPGKVEITKLHNGARVITHNLGGPSVSVGAYILAGPAYDPPSAPGAGAMMHLALTTSNYNNSLFQLDRNIRSVGAAQSHFEKHKHYIGIRIDARADKWKSAASTSSFSQRRQLQNQKQAEQQFSLNLVQDNIFTCIAAPRFHEPDVERFRDTIDNQVEELRWQCPAEYAKQMLETVAFYREPLGNPRFVPAMSNSIISSSVLLEQYSRYIVPSRVVVAGVNVDHAALIAEYENTPFPHSASAPHHARAQPCVVNWKDEASQYTGGERHDHEDRPKVMGTKPDMDPESIIAVGWLAYGKDRKMVKDHAASMVVGALMDIGFSGCMRCGAPDEMHEHTGLRAFYNPYQTAGLIGFTAKAEPQAAVRMVTDAVKMVRASQASVADSMLSVAKKMAKTQFMVQTVDTIRDYCDYLGTCLAVDSDSTLATSVEEVVDAINSVNAADVKRVYEKMFSNKTSLYGHGEMLGFPSMRQMGL", "soluble on expression in E. coli": "not soluble"}
{"sequence": "TELKPLLIELGTEELPVNALPNLSRAFFEGVLAGLERRGIVVDHGEAKSLSTPRRLAVLLTAVAVEQPKQYRELFGPYLNTAFDTEGKPTKALEGFAAKCGVNWRTLERIRDTKGERFVHRVVVPGERTDALLPGILTEAIAGMPIPKPMRWGAHEYLFARPVHWLVMLFGQDVVEAEIMGVKAGRISRGHRFLYDKPVSLSGPQNYIDVLQAAYVLVDPAARRARIVAEIEAVARQVGGVARITEDNVAQVVNLVEWPSAVLCSFERVFLEVPQEALIQTMEVNQKFFPVLDSLGKLTEKFIGIANIESNDVAEVAKGYERVIRPRFSDAKFFFNEDLKQGLKAMGERLRTVTYHAKLGTLADKVARVLVLAEAIAPQIGVDPLLARRVALLSKNDLQSRMVNEFPELQGVAGHHYALISGELPEVAMAIEDAYRPRFSGDEIARSPLGKVLGLAERLDTLACGFAVGMKPTGNKDPFGLRRNALGLARTIIESRFDLDLKVLLDQASDWVAFATTIEQERHAQESVKQSKKEAAVKHSVPQVSDEKSARIEELYDFIVERLRGYYADKGIPTTHFNAVAELKPVS", "soluble on expression in E. coli": "not soluble"}
{"sequence": "MSLLILIGWQIQVRQPSDYIMNKTEFYADLNRDFNALMAGETSFLATLANTSALLYERLTDINWAGFYLLEDDTLVLGPFQGKIACVRIPVGRGVCGTAVARNQVQRIEDVHVFDGHIACDAASNSEIVLPLVVKNQIIGVLDIDSTVFGRFTDEDEQGLRQLVAQLEKVLATTDYKKFFASVAGEGGSHHHHHH", "soluble on expression in E. coli": "soluble"}
{"sequence": "MHIRRDQYMNEYVWETCEELDKKIADRVRLIRKRRSISQEKLSKISNVSLGSIKRFETTGQISLLSLTKIAVALNIADDLRNIFTEIPYNSIEEVINERR", "soluble on expression in E. coli": "not soluble"}
{"sequence": "MAHHHHHHMKQNGGRETPDGVRYPHIALDVLGQCHSSACVELGNTRVICAVHHPQQLVDEYRGSRGRVACTVRRSASAGSHAAGSAQPSVVTPEKDMSLALEGVAEEVVILEKIPQLLVEVVVEILAEDGGVWDAVATSMSAALVSGGFEMYDLFSACGSALLSDGAVVLDPDAAEESNAQASALVCLMLNSGDICYARHQGSCEPGTVLELVSSAMKGCLSRKSAITTQLINHPIL", "soluble on expression in E. coli": "not soluble"}
